Measured values: publication PMC3688787
Square brackets hold non-standard residues; d marks the D form. Ends that are not written are not given here. Hyp = O=C(O)[C@@H]1C[C@@H](O)CN1

Assays:
Assay in all cases: ELISA; ELISA-based binding assay: pVHL variant (10 µg/ml, 100 µl) coated on the plate overnight at 4°C, blocked with 5% BSA; TAMRA-labelled Hyp402-ODD peptide added at increasing concentrations, 1 h at 25°C; high salt buffer (10 mM Tris-HCl pH 8.5, 500 mM NaCl) without Arginine; fluorescence at 580 nm
[1] = molecular target: pVHL F119L mutant, 19 kDa form (human)
[2] = molecular target: pVHL F136L mutant, 19 kDa form (human)
[3] = molecular target: pVHL N78S mutant, 19 kDa form (human)

fold lower affinity than the WT [1]: 2.5 fold
fold lower affinity than the WT [2]: 5 fold
fold lower affinity than the WT [3]: 2 fold
B1: Hyp402-ODD target peptide of HIF-1α (peptide)
peptide: LDLEALA[Hyp]YIPADDDFQLRS
modifications: also: TAMRA (rhodamine) label, end not given here
